{"source": "patent US20050095615", "proteins": {"B1": {"name": "TEV protease (protein)", "chain": "GESLFKGPRDYNPISSTICHLTNESDGHTTSLYGIGFGPFIITNKHLFRRNNGTLLVQSLHGVFKVKNTTTLQQHLIDGRDMIIIRMPKDFPPFPQKLKFREPQREERICLVTTNFQTKSMSSMVSDTSCTFPSSDGIFWKHWIQTKDGQCGSPLVSTRDGFIVGIHSASNFTNTNNYFTSVPKNFMELLTNQEAQQWVSGWRLNADSVLWGGHKVFMSKPEEPFQPVKEATQLMNELVYSQ"}}, "molecular_target": "His6/LUMIO tag/MBP protein expressed from pET160-GW/MBP [MBP: P0AEX9]"}
{"protein": "B1", "values": [{"measurement": "cleavage by TEV protease", "result": "The TEV protease efficiently cleaves the N-terminal sequences from partially purified protein."}, {"measurement": "digestion with TEV protease analyzed by SDS-PAGE", "result": "The results demonstrated that the pET160-DEST vector can encode a functional TEV cleavage site."}]}
